Measured values published in PMC3882142.

Target: bacteriophage P22 coat protein (CP), assembled as the P22 VLP capsid (bacteriophage P22) (UniProt P26747)
Experiment: SEC-MALS

Chain of UniProt P26747 (P26747 whole entry): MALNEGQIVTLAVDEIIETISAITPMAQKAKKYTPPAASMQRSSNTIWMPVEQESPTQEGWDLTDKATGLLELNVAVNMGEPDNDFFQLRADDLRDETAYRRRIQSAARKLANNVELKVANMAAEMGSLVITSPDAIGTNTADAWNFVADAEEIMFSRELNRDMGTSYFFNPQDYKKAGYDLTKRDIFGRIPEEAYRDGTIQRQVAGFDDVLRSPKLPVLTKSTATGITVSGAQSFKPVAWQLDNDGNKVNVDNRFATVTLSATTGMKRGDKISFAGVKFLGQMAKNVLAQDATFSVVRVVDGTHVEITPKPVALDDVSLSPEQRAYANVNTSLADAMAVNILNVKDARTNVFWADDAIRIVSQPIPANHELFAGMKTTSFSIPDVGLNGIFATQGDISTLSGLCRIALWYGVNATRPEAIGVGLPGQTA

Substance	stoichiometry N (proteins per capsid)
GalA-SP fusion protein (alpha-galactosidase of Pyrococcus furiosus fused to the truncated scaffold protein of P22)	183
HA_(head)-SP fusion protein (hemagglutinin head of influenza fused to the truncated scaffold protein of P22)	286
